{"source": "paper PMC4608358", "key": {"[1]": {"target": "wildtype hamster BiP, N-terminally hexahistidine-tagged (hamster) (UniProt G3I8R9)", "assay": "SEC-MALS; wildtype BiP 90 µM, Superdex 200 Increase 10/300 in HKM, room temperature"}, "[2]": {"target": "wildtype hamster BiP, N-terminally hexahistidine-tagged (hamster) (UniProt G3I8R9)", "assay": "native gel or EMSA; purified BiP diluted to a series of concentrations, equilibrated 48 hr at room temperature, native-PAGE immunoblot; share of species II and III against concentration; crude estimate"}}, "note": "“And” between values parts separate entries of the source, which are not always exact repeats. Equal entries are not always repeated.", "data": [{"substance": "wildtype hamster BiP, N-terminally hexahistidine-tagged, G3I8R9 19-654 (natural protein; other documents disagree on this pair)", "values": [{"measurement": "stoichiometry N", "setting": "[1]", "result": "2 and 3"}, {"measurement": "K (1/2max)^II (concentration of BiP at which half of species II dissociated)", "setting": "[2]", "result": 0.45, "unit": "µM"}, {"measurement": "K (1/2max)^III (concentration of BiP at which half of species III dissociated)", "setting": "[2]", "result": 0.74, "unit": "µM"}]}]}
